Laboratory results from article PMC10148881, “Recognition of an Ala-rich C-degron by the E3 ligase Pirh2” (Nature Communications, 2023).
Where a chain is given by its changes, count along the chain named. Names and notes keep the numbering of the source.

T1: Ala6/C-degron peptide (sequence: …)
T1 chain: YKTSAAAAAA

B1: WT Pirh2 S155D (protein)
chain: MAATAREDGASGQERGQRGCEHYDRGCLLKAPCCDKLYTCRLCHDNNEDHQLDRFKVKEVQCINCEKIQHAQQTCEECSTLFGEYYCDICHLFDKDKKQYHCENCGICRIGPKEDFFHCLKCNLCLAMNLQGRHKCIENVSRQNCPICLEDIHTDRVVAHVLPCGHLLHRTCYEEMLKEGYRCPLCMHS
B2: WT Pirh2 R54A (protein)
chain: B1 chain with R54A, D155S
B3: WT Pirh2 D94A (protein)
chain: B1 chain with D94A, D155S
B4: WT Pirh2 Q99A (protein)
chain: B1 chain with Q99A, D155S
B5: WT Pirh2 A159D (protein)
chain: B1 chain with D155S, A159D

Key:
[1] = molecular target: T1, Ala6/C-degron peptide (sequence: …); test: ITC; conditions: chain shown with the change
Pirh2 D94A (human) = Pirh2 D94A (human) (UniProt Q96PM5); test: ITC; peptides (0.6–1.0 mM) titrated into the cell with 180–220 μM protein at 16 °C; 20 mM Tris-HCl pH 7.5, 150 mM NaCl, 10 μM Zn2+; one-site binding model
Pirh2 Q99A (human) = Pirh2 Q99A (human) (UniProt Q96PM5); test: as above
Pirh2 R54A (human) = Pirh2 R54A (human) (UniProt Q96PM5); test: as above
[2] = molecular target: Pirh2 with Ala159 substituted with aspartic acid (human) (UniProt Q96PM5); test: as above
[3] = molecular target: Pirh2 with Ser155 substituted with aspartic acid (human) (UniProt Q96PM5); test: as above

Binder | Kd [1] | other results
B1 | 4.5 µM | 
B2 | > 100 µM | 
B3 | 3 µM | 
B4 | 3.5 µM | 
B5 | 7.1 µM | 
YKTSAAAAAA [Ala6/C-degron peptide (sequence: …)] |  | fold decrease in binding affinity against wild-type Pirh2 (Pirh2 D94A (human)): > 6 fold; fold decrease in binding affinity against wild-type Pirh2 (Pirh2 Q99A (human)): > 6 fold; fold decrease in binding affinity against wild-type Pirh2 (Pirh2 R54A (human)): > 6 fold; fold decrease in binding affinity against wild-type Pirh2 [2]: 14 fold; fold decrease in binding affinity against wild-type Pirh2 [3]: 9 fold
